From publication PMC7914648 (Pharmaceuticals, 2021)

Columns and labels:
mouse Red Blood Cells = assay: Haemolysis assay; assay type: cell-based; settings: 5 × 10^7 mouse erythrocytes in 1 mL PBS pH 7.4, 2, 1 or 0.5 µM, 15 min, absorbance 540 nm, n = 3
Protocol: Haemolysis studies were conducted as described in [72]. Briefly, freshly withdrawn blood samples were centrifuged at 1000× g for 10 min to obtain erythrocytes; the pellet was then washed thrice with sterile PBS (pH 7.4). Erythrocytes (5 × 10^7 cells in 1 mL of PBS for each experimental condition) were incubated with 2, 1 or 0.5 µM An2-PAPTP or TAT-PAPTP for 15 min. The samples were then centrifuged and absorbance (Abs) of the supernatant was measured at 540 nm. Triton X-100 1% and PBS were used as positive and negative control, respectively.
The percentage of haemolysis was calculated with the following equation:% haemolysis = [(Abssample − AbsPBS)/AbsTriton X-100 − AbsPBS)] × 100

[1] = Tissue distribution of An2-PAPTP and metabolites (liver, spleen, kidneys, heart) after i.v. injection; assay type: in vivo, mouse
Text: The total amount of An2-PAPTP and its metabolites, summarized in Table 3, is comprehensive of all the species having the characteristic psoralenic UV spectrum obtained by the overall extraction procedure (i.e., from organic solvent extraction and basic hydrolysis of the remaining pellet), and represents and underestimation of the real concentration in the tissue (see Section 4.7.3). This is because no recovery yield correction was applied, since it was impossible to identify most of the species extracted, and because PAPTPL extracted after high-pH hydrolysis of the pellet could come either from An2-PAPTP or from metabolites. For quantification in HPLC analysis, all the psoralenic species were assumed to have the same molar extinction coefficient as PAPTPL, an assumption justified by the near-identity observed for all the available psoralen-containing molecules.
(§1) The liver, spleen, kidneys, heart obtained from untreated mice were weighed and homogenized with PBS pH 7.4 (1 vol) with a potter. The pre-established amount of PAPTPL was added into tissue homogenates or blood and, after thorough vortexing, 5 vol of acetone were added and the sample was sonicated for 2 min. Subsequently, 5 vol of ACN containing 0.1% TFA were added and the sample was sonicated for 5 min. The sample was then centrifuged at 12,000× g for 7 min at 4 °C and the supernatant was collected, concentrated with a Hetovac VR-1, and analyzed via HPLC-UV.
as §1, with “Brain and liver” for “The liver, spleen, kidneys, heart”, “analyte” for “PAPTPL”, “homogenates” for “homogenates or blood”, “trifluoracetic acid (TFA)” for “TFA”
To quantify the amount of An2-PAPTP stuck in the tissue, the pellet remaining after the procedure described above was incubated with intermittent Vortexing at 60 °C for 3 h with PBS pH 12.5/ACN 1:1 and then centrifuged at 12,000× g for 7 min. HPLC-UV analysis of the supernatant, measuring PAPTPL hydrolyzed from the tissue, thus indirectly reflects the amount of An2-PAPTPL in the pellet (Scheme 3). Quantification was as described for PAPTPL.
A stock solution of the peptide-PAPTP conjugates was prepared in DMSO. TAT-PAPTP was administered at 8 and 5 μmol/kg bw and An2-PAPTP only at 5 μmol/kg bw. The calculated quantity of drugs was diluted from the stock solution in saline or mouse plasma to a final volume of 200 μL.

[2] = Preliminary brain levels after intraperitoneal An2-PAPTP; assay type: in vivo, mouse; settings: An2-PAPTP 5 µmol/kg bw i.p. in DMSO; sacrifice at 20 min or 1, 2, 4 h; four mice
Protocol: In preliminary tests An2-PAPTP was administered at 5 µmol/kg bw by the intraperitoneal (i.p.) route, using dimethylsulfoxide (DMSO) as the vehicle. […] Many brain-penetrating peptides bind to biomolecules such as proteins and cell structures such as membranes. Furthermore, the absence of a flowing bloodstream at the injection site may cause a poorly soluble molecule to remain confined in the vicinity of the point of delivery. […] Collectively, these preliminary results led to the adoption of the intravenous route. An2-PAPTP (5 µmoles/kg bw, in plasma) was thus administered by tail vein injection to mice.

[3] = An2-PAPTP 5 µmoles/kg bw i.v., all psoralenic species, 312 nm, no recovery correction, mean ± SEM, n = 5
[4] = An2-PAPTP i.v., found in one animal out of four
[5] = An2-PAPTP i.v., mean ± SEM, n = 4
[6] = An2-PAPTP i.v., mean ± SEM, n = 5
[7] = An2-PAPTP i.v., mean ± SEM, n = 6

CC[C@H](C)[C@H](NC(=O)Oc1ccc(CCCOc2ccc([P+](CCCc3ccc(OCCCCOc4c5ccoc5cc5oc(=O)ccc45)cc3)(c3ccccc3)c3ccccc3)cc2)cc1)C(=O)N[C@H](C(=O)N[C@@H](Cc1ccccc1)C(=O)N[C@@H](Cc1ccccc1)C(=O)N[C@@H](Cc1ccc(O)cc1)C(=O)NCC(=O)NCC(=O)N[C@@H](CO)C(=O)N[C@@H](CCCNC(=N)N)C(=O)NCC(=O)N[C@@H](CCCCN)C(=O)N[C@@H](CCCNC(=N)N)C(=O)N[C@@H](CC(N)=O)C(=O)N[C@@H](CC(N)=O)C(=O)N[C@@H](Cc1ccccc1)C(=O)N[C@@H](CCCCN)C(=O)N[C@H](C(=O)N[C@@H](CCC(=O)O)C(=O)N[C@@H](CCC(=O)O)C(=O)N[C@@H](Cc1ccc(O)cc1)C(=O)O)[C@@H](C)O)[C@@H](C)O [An2-PAPTP]
haemolysis (release of haemoglobin) (mouse Red Blood Cells): did not induce a measurable release of haemoglobin
Heart Psoralenic Species (nmol/g Tissue), 15 min [1, 3]: 0.2 ± 0.1 nmol/g Tissue
Kidney Psoralenic Species (nmol/g Tissue), 15 min [1, 3]: 5 ± 4 nmol/g Tissue
Spleen Psoralenic Species (nmol/g Tissue), 15 min [1, 3]: 28 ± 9 nmol/g Tissue
Liver Psoralenic Species (nmol/g Tissue), 15 min ([1]; An2-PAPTP 5 µmoles/kg bw i.v., all species with psoralenic UV spectrum, 312 nm, no recovery correction, mean ± SEM, n = 5): 23 ± 3 nmol/g Tissue
degradation of the peptide chain by liver peptidases ([1]; An2-PAPTP 5 µmoles/kg bw i.v., liver, in vivo): degraded the peptide chain nearly completely in little more than one hour
Heart Psoralenic Species (% of Administered Dose), 30 min, single animal [1, 4]: 0.07 % of Administered Dose
Heart Psoralenic Species (nmol/g Tissue), 30 min, single animal [1, 4]: 0.36 nmol/g Tissue
Kidney Psoralenic Species (% of Administered Dose), 30 min [1, 5]: 0.32 ± 0.07 % of Administered Dose
Spleen Psoralenic Species (% of Administered Dose), 30 min [1, 5]: 0.27 ± 0.09 % of Administered Dose
Heart Psoralenic Species (% of Administered Dose), 15 min [1, 6]: 0.07 ± 0.01 % of Administered Dose
Kidney Psoralenic Species (% of Administered Dose), 15 min [1, 6]: 1.2 ± 0.8 % of Administered Dose
Spleen Psoralenic Species (% of Administered Dose), 15 min [1, 6]: 1.2 ± 0.3 % of Administered Dose
Kidney Psoralenic Species (% of Administered Dose), 60 min [1, 7]: 0.31 ± 0.03 % of Administered Dose
Spleen Psoralenic Species (% of Administered Dose), 60 min [1, 7]: 0.8 ± 0.2 % of Administered Dose
Heart Psoralenic Species (% of Administered Dose), 60 min ([1]; An2-PAPTP i.v., n = 6): 0 % of Administered Dose
Heart Psoralenic Species (nmol/g Tissue), 60 min ([1]; An2-PAPTP i.v., n = 6): 0 nmol/g Tissue
Liver Psoralenic Species (nmol/g Tissue), 30 min ([1]; as above, 30 min, n = 4): 17 ± 2 nmol/g Tissue
Liver Psoralenic Species (nmol/g Tissue), 60 min ([1]; as above, 60 min, n = 6): 11 ± 3 nmol/g Tissue
Kidney Psoralenic Species (nmol/g Tissue), 30 min ([1]; as above, n = 4): 1.3 ± 0.2 nmol/g Tissue
Spleen Psoralenic Species (nmol/g Tissue), 30 min ([1]; as above, n = 4): 4.3 ± 1.4 nmol/g Tissue
Kidney Psoralenic Species (nmol/g Tissue), 60 min ([1]; as above, n = 6): 1.2 ± 0.1 nmol/g Tissue
Spleen Psoralenic Species (nmol/g Tissue), 60 min ([1]; as above, n = 6): 11 ± 3 nmol/g Tissue
detection in brain after i.p. administration [2]: no An2-PAPTP or PAPTPL could be detected
